Source: US20260098072A1, “METHODS OF STIMULATING APPETITE AND/OR INCREASING BODY WEIGHT USING NON-NATURALLY OCCURRING MELANOCORTIN RECEPTOR ANTAGONIST ANALOGS” (Endevica Bio, Inc., priority 2022, published 2026)
Values joined by “and” are separate entries in the source; they are usually repeats but may differ in a detail not shown here. Equal values may be shown once. Where a name gives a salt, the structure may show the parent alone. Positions of bridges follow the written chain, without caps; N, C: chain ends. Non-standard residues stand in square brackets, D forms with d. Residues, ends and D or L forms follow the SMILES beside them. No end group written: not given here. d2Nal = N[C@H](Cc1ccc2ccccc2c1)C(=O)O; Hyp = O=C(O)[C@@H]1C[C@@H](O)CN1; Nle = CCCC[C@H](N)C(=O)O

Key:
[1] = molecular target: T1, human MC3R (Homo sapiens, UniProt P41968); assay: cAMP accumulation assay (HTRF), antagonist activity at MC3R; assay type: cell-based; settings: for Hill Coefficient / Top (%): dose-response fit, MC3R; for Emax / IC50: HEK293/CRE-luc/MC3R; for Emax: 0.1 nM to 1,000 nM, read-out: Max Activation %; for IC50: estimated from dose-response curve
T1 construct: expressed in transfected cells; host or cells: HEK293/CRE-luc/MC3R
T1 sequence (P41968 whole entry): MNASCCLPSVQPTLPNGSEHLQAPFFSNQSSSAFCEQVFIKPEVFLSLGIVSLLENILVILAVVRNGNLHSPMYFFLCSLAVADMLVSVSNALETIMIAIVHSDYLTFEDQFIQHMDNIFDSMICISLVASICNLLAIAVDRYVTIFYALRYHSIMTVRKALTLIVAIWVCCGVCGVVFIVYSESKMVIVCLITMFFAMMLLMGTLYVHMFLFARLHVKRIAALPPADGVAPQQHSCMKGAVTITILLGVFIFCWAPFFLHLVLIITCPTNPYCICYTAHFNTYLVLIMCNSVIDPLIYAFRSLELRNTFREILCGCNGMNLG
Experimental: (§1) The antagonist activity of exemplary non-naturally occurring melanocortin analogs (SEQ ID NOs: 3, 4, 6, 9-11, 14, 15, and 291-309) at the melanocortin 3 receptor (MC3R) and melanocortin 4 (MC4R) receptor was measured via cAMP accumulation assay, according to the following procedure.
(§2) Recombinant cell lines shown in Table 1 were stimulated with melanocortin receptor antagonists and evaluated for cyclic adenosine monophosphate (cAMP) levels as a measurement of receptor activation. cAMP levels were quantified using Homogeneous Time-Resolved Fluorescence (HTRF). The stimulation and CAMP measurement were performed sequentially. First, the compound stimulated the G-protein coupled receptor (GPCR) which then induced downstream signaling, which was measured soon after. Cell lines and stimulated receptors used are detailed in Table 1.
(§3) Twenty-seven exemplary synthetic peptides were tested for antagonist activity at the human MC3R and MC4R at concentrations ranging from 0.1 nM to 1,000 nM. After stimulation, the level of cyclic adenosine monophosphate (CAMP) in each well was quantified via Homogenous Time-Resolved Fluorescence (HTRF) as a measurement of receptor activity. Dose-response curves and estimated IC50 values were then obtained for each antagonist peptide against the MC3R and MC4R. HS024 (TFA) and was used as a positive control for the antagonist activity of MC3R (FIG. 1A) and MC4R (FIG. 1B).

[2] = molecular target: T2, human MC4R (Homo sapiens, UniProt P32245); assay: cAMP accumulation assay (HTRF), antagonist activity at MC4R; assay type: cell-based; settings: for Hill Coefficient / Top (%): dose-response fit, MC4R; for Emax: HEK293, HEK293/MC4R/CRE-GFP, 0.1 nM to 1,000 nM, read-out: Max Activation %; for IC50: HEK293/MC4R/CRE-GFP, estimated from dose-response curve
T2 construct: expressed in transfected cells; host or cells: HEK293/MC4R/CRE-GFP
T2 sequence (P32245 whole entry): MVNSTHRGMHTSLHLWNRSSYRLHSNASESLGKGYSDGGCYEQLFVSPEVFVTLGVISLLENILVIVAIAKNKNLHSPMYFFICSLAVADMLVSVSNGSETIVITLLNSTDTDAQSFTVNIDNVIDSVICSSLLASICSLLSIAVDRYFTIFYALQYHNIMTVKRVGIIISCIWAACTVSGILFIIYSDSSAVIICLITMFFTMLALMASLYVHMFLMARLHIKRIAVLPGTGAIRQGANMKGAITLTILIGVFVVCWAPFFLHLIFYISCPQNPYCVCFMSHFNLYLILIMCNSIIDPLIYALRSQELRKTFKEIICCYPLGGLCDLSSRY
Experimental: as §1, §2, §3

| Compound | Hill Coefficient [1] | Top (%) [1] | Hill Coefficient [2] | Top (%) [2] | Emax [2] | IC50 [2] | Emax [1] | IC50 [1] |
| --- | --- | --- | --- | --- | --- | --- | --- | --- |
| Ac-Nle-Pro-Dnal(2′)-Arg-Trp-Dval-Dpro-NH2 (Ac-[Nle]P[d2Nal]RW[dV][dP]-NH2; SMILES CCCC[C@H](NC(C)=O)C(=O)N1CCC[C@H]1C(=O)N[C@H](Cc1ccc2ccccc2c1)C(=O)N[C@@H](CCCNC(=N)N)C(=O)N[C@@H](Cc1c[nH]c2ccccc12)C(=O)N[C@@H](C(=O)N1CCC[C@@H]1C(N)=O)C(C)C) [Peptide A2] | 0.82 | 9.73% | – | – | – | – | – | – |
| IDPWRWKVP [Peptide C8] | −57.42 | 0.80% | 10.57 | – | – | – | – | – |
| LDPWRWKVP [Peptide C7] | −0.13 | 1.86% | 1.62 | 4.61% | – | – | – | – |
| CCCC[C@H](NC(C)=O)C(=O)N[C@H]1CC(=O)NCCCC[C@@H](C(=O)N[C@@H](C(=O)N2CCC[C@@H]2C(N)=O)C(C)C)NC(=O)[C@H](Cc2c[nH]c3ccccc23)NC(=O)[C@H](CCCNC(=N)N)NC(=O)[C@@H](Cc2ccc3ccccc3c2)NC(=O)[C@H](Cc2c[nH]cn2)NC(=O)[C@@H]2CCCN2C1=O [Peptide D1, Ac-Nle-c(Asp-Pro-His-Dnal(2′)-Arg-Trp-Lys)-Dval-Dpro-NH2] (Ac-[Nle]DPH[d2Nal]RWK[dV][dP]-NH2; lactam 2-8) | 0.73 | 4952.72% | 0.55 | 2739.03% | 49.4% | > 10 µM | 74.5% | < 10 µM |
| LPWRWVP [Peptide C4] | −5.34 | – | −7.31 | −1.97% | – | – | – | – |
| VDPWRWKVP [Peptide C9] | 2.95 | −64.92% | 0.64 | 219.95% | – | – | – | – |
| IPFFRWVP [Peptide B5] | −0.76 | 736.17% | 1.22 | – | – | – | – | – |
| LDPFFRWKVP [Peptide B7] | −0.84 | 7754.77% | −1.76 | 516.09% | – | – | – | – |
| VPWRWVP [Peptide C6] | 1.00 | 100.00% | 2.07 | 321.26% | – | – | – | – |
| VDPFFRWKVP [Peptide B9] | 2.26 | 1.22% | −19.71 | −0.55% | – | – | – | – |
| LPFFRWVP [Peptide B4] | 0.36 | 29.62% | 1.90 | 16.60% | – | – | – | – |
| IDPFFRWKVP [Peptide B8] | 12.04 | 4.40% | 0.49 | 20.03% | – | – | – | – |
| Ac-Nle-c(Asp-His-Dnal(2′)-Arg-Trp-Pro-Lys)-Dval-Dpro-NH2 (Ac-[Nle]DH[d2Nal]RWPK[dV][dP]-NH2; lactam 2-8; SMILES CCCC[C@H](NC(C)=O)C(=O)N[C@H]1CC(=O)NCCCC[C@@H](C(=O)N[C@@H](C(=O)N2CCC[C@@H]2C(N)=O)C(C)C)NC(=O)[C@@H]2CCCN2C(=O)[C@H](Cc2c[nH]c3ccccc23)NC(=O)[C@H](CCCNC(=N)N)NC(=O)[C@@H](Cc2ccc3ccccc3c2)NC(=O)[C@H](Cc2c[nH]cn2)NC1=O) [Peptide D2] | 0.84 | 177.39% | 1.55 | 18.76% | – | – | – | – |
| Leu-c(Asp-Pro-Phe-Phe-Arg-Trp-Lys)-Val-Pro (LDPFFRWKVP; lactam 2-8) [Peptide B3] | 1.00 | 100.00% | 9.04 | – | – | – | – | – |
| CCCC[C@H](NC(C)=O)C(=O)N[C@H]1CC(=O)NCCCC[C@@H](C(=O)N2CCC[C@@H]2C(=O)N[C@@H](C(N)=O)C(C)C)NC(=O)[C@H](Cc2c[nH]c3ccccc23)NC(=O)[C@H](CCCNC(=N)N)NC(=O)[C@@H](Cc2ccc3ccccc3c2)NC(=O)[C@H](Cc2c[nH]cn2)NC(=O)[C@@H]2CCCN2C1=O [Peptide D5, Ac-Nle-c(Asp-Pro-His-Dnal(2′)-Arg-Trp-Lys)-Dpro-Dval-NH2] (Ac-[Nle]DPH[d2Nal]RWK[dP][dV]-NH2; lactam 2-8) | 1.04 | 472.61% | 0.67 | 2724.46% | 41.5% | – | 24.6% | > 10 µM |
| Ac-Leu-c(Asp-Pro-Trp-Arg-Trp-Lys)-Val-Pro-NH2 (Ac-LDPWRWKVP-NH2; lactam 2-7; SMILES CC(=O)N[C@@H](CC(C)C)C(=O)N[C@H]1CC(=O)NCCCC[C@@H](C(=O)N[C@H](C(=O)N2CCC[C@H]2C(N)=O)C(C)C)NC(=O)[C@H](Cc2c[nH]c3ccccc23)NC(=O)[C@H](CCCNC(=N)N)NC(=O)[C@H](Cc2c[nH]c3ccccc23)NC(=O)[C@@H]2CCCN2C1=O) [Peptide C2] | −0.48 | 0.42% | 48.53 | −2.85% | – | – | – | – |
| CCCC[C@@H]1NC(=O)[C@@H](NC(C)=O)CSSC[C@@H](C(N)=O)NC(=O)CNC(=O)[C@H](Cc2c[nH]c3ccccc23)NC(=O)[C@H](CCCNC(=N)N)NC(=O)[C@@H](Cc2ccc3ccccc3c2)NC(=O)[C@H](Cc2c[nH]cn2)NC(=O)[C@H](CCCNC(=N)N)NC1=O [HS024(TFA), reference compound] (Ac-C[Nle]RH[d2Nal]RWGC-NH2; disulfide 1-9 (inferred); N-terminus and C-terminus assumed) | 0.93 | 117.07% | 0.61 | 113.93% | 104% | – | 102% | – |
| Ac-Leu-c(Asp-Pro-Phe-Phe-Arg-Trp-Lys)-Val-Pro-NH2 (Ac-LDPFFRWKVP-NH2; lactam 2-8; SMILES CC(=O)N[C@@H](CC(C)C)C(=O)N[C@H]1CC(=O)NCCCC[C@@H](C(=O)N[C@H](C(=O)N2CCC[C@H]2C(N)=O)C(C)C)NC(=O)[C@H](Cc2c[nH]c3ccccc23)NC(=O)[C@H](CCCNC(=N)N)NC(=O)[C@H](Cc2ccccc2)NC(=O)[C@H](Cc2ccccc2)NC(=O)[C@@H]2CCCN2C1=O) [Peptide B2] | 0.34 | 20.30% | 0.69 | 729.66% | – | – | – | – |
| Ac-Nle-c(Asp-Pro-Phe-Phe-Arg-Trp-Lys)-Dval-Dpro-NH2 (Ac-[Nle]DPFFRWK[dV][dP]-NH2; lactam 2-8; SMILES CCCC[C@H](NC(C)=O)C(=O)N[C@H]1CC(=O)NCCCC[C@@H](C(=O)N[C@@H](C(=O)N2CCC[C@@H]2C(N)=O)C(C)C)NC(=O)[C@H](Cc2c[nH]c3ccccc23)NC(=O)[C@H](CCCNC(=N)N)NC(=O)[C@H](Cc2ccccc2)NC(=O)[C@H](Cc2ccccc2)NC(=O)[C@@H]2CCCN2C1=O) [Peptide B1] | 1.05 | – | 7.57 | – | – | – | – | – |
| CCCC[C@H](NC(C)=O)C(=O)N[C@H]1CC(=O)NCCCC[C@@H](C(=O)N[C@@H](C(=O)N2CCC[C@@H]2C(N)=O)C(C)C)NC(=O)[C@@H]2CCCN2C(=O)[C@H](Cc2c[nH]c3ccccc23)NC(=O)[C@H](CCCNC(=N)N)NC(=O)[C@@H](Cc2ccc3ccccc3c2)NC(=O)[C@@H]2C[C@@H](O)CN2C1=O [Peptide D4, Ac-Nle-c(Asp-Hyp-Dnal(2′)-Arg-Trp-Pro-Lys)-Dval-Dpro-NH2] (Ac-[Nle]D[Hyp][d2Nal]RWPK[dV][dP]-NH2; lactam 2-8) | 0.65 | 2741.58% | 0.92 | 9354.39% | 21% | – | 50.1% | > 10 µM |
| CCCC[C@H](NC(C)=O)C(=O)N[C@H]1CC(=O)NCCCC[C@@H](C(=O)N[C@@H](C(=O)N2CCC[C@@H]2C(N)=O)C(C)C)NC(=O)[C@H](Cc2c[nH]c3ccccc23)NC(=O)[C@H](CCCNC(=N)N)NC(=O)[C@@H](Cc2ccc3ccccc3c2)NC(=O)[C@@H]2C[C@@H](O)CN2C1=O [Peptide D3, Ac-Nle-c(Asp-Hyp-Dnal(2′)-Arg-Trp-Lys)-Dval-Dpro-NH2] (Ac-[Nle]D[Hyp][d2Nal]RWK[dV][dP]-NH2; lactam 2-7) | 0.98 | 113.20% | 0.80 | 119.03% | 117% | < 10 µM and 0.0406 µM | 111% | < 10 µM and 0.087 µM |
| Ac-Nle-c(Asp-Pro-Trp-Arg-Trp-Lys)-Dval-Dpro-NH2 (Ac-[Nle]DPWRWK[dV][dP]-NH2; lactam 2-7; SMILES CCCC[C@H](NC(C)=O)C(=O)N[C@H]1CC(=O)NCCCC[C@@H](C(=O)N[C@@H](C(=O)N2CCC[C@@H]2C(N)=O)C(C)C)NC(=O)[C@H](Cc2c[nH]c3ccccc23)NC(=O)[C@H](CCCNC(=N)N)NC(=O)[C@H](Cc2c[nH]c3ccccc23)NC(=O)[C@@H]2CCCN2C1=O) [Peptide C1] | 0.23 | 6.49% | 0.08 | 51.32% | – | – | – | – |
